Source: patent publication US20160151511A1, “PROTEINS AND PROTEIN CONJUGATES WITH INCREASED HYDROPHOBICITY” (priority 2014, published 2016)

Tests used:
GLP-1 receptor = target: T1, GLP-1 receptor (Homo sapiens, UniProt P43220); experiment: Cell-based GLP-1 receptor assay, intracellular calcium mobilization in CHO-K1/GLP1/Gα15 (FlexStation); settings: Calcium-4
T1 construct: expressed in transfected cells; host or cells: CHO-K1/GLP1/Gα15
Method: The intracellular calcium change was measured by FlexStation. […] A lower EC50 indicates a higher activity.

[1] = target: GLP-1 receptor on CHO-K1/GLP1/Gα15 cells (UniProt P43220); experiment: cell-based or functional assay
[2] = target: T2, GLP-1 receptor (covalently immobilized on the Biacore biosensor surface) (UniProt P43220 24-145, limits assumed); experiment: Biacore (SPR), GLP-1 receptor covalently immobilized, peptide injected
T2 construct: also called the receptor

T1 sequence (P43220 24-463, species assumed): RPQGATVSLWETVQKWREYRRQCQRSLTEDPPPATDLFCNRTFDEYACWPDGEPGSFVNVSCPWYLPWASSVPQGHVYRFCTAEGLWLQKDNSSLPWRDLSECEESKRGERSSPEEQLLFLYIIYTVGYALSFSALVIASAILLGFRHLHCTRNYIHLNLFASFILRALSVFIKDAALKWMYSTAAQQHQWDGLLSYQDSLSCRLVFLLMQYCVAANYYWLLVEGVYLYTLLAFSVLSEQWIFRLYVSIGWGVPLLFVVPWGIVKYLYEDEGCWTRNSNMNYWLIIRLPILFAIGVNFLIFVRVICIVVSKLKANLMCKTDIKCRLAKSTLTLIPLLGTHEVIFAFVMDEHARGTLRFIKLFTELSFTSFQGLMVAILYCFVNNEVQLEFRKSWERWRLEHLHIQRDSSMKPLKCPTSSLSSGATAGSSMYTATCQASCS
GLP-1 receptor on CHO-K1/GLP1/Gα15 cells, sequence (P43220 24-463 limits assumed): as the sequence (P43220 24-463, species assumed) above

Row | Molecule | EC50 (GLP-1 receptor) [nM] | EC50 of intracellular calcium mobilization (Calcium-4, FlexStation RFU) [1] [nM] | Kd [2] [nM]
1 | 5 kDa-PEG-Cys(37)-GLP-1 (HAEGTFTSDVSSYLEGQAAKEFIAWLVKGRC) | 336 |  | 
2 | HAEGTFTSDVSSYLEGQAAKEFIAWLVKGRC (5 kDa cysteine-reactive maleimide-PEG on the added Cys at position 37, range 27-56; also called 5 kDa-PEG-GLP-1 (Cys analog); C-terminally PEGylated GLP-1) [5 kDa-PEG-Cys(37)-GLP-1] |  | 336 | 1600
